This data set in a line: anti-FLAG western blot, 293T cells. To be noted: glycan lost; control: WT-TWSG1 adenovirus. Background: In western blotting, separated proteins are transferred to a membrane and probed.

B1: twisted gastrulation (TWSG1): N80Q/N146Q (protein)
parent chain: MKSHYIVLALASLTFLLCLPVSQSCNKALCASDVSKCLIQELCQCRPGEGNCPCCKECMLCLGALWDECCDCVGMCNPRNYSDTPPTSKSTVEELHEPIPSLFRALTEGDTQLNWNIVSFPVAEELSHHENLVSFLETVNQLHHQNVSVPSNNVHAPFPSDKERMCTVVYFDDCMSIHQCKISCESMGASKYRWFHNACCECIGPECIDYGSKTVKCMNCMF
With B1, the expression_or_secretion entry is “no change”.

For the origin of these results see publication PMC4853233.
